PMC11323955

Molecular target: MBP-MlCYC2A (M. lewisii)
Test: SPR

Row | Kd [nM] | Substance
1 | 1440 | GST-MlBOP (natural protein)
2 | 968 | GST-bop-1 (GST-tagged MlBOP with the H39L point mutation) (natural protein)
